Reference: patent US20040013664A1 (published 2004)
Each block holds one binder with its values, some of them ahead of it.

Key:
[1] = molecular target: T1, Murine FasL expressed on murine L929 cells (mouse, UniProt P41047 1-279); assay: cell-based or functional assay
T1 sequence (looked up): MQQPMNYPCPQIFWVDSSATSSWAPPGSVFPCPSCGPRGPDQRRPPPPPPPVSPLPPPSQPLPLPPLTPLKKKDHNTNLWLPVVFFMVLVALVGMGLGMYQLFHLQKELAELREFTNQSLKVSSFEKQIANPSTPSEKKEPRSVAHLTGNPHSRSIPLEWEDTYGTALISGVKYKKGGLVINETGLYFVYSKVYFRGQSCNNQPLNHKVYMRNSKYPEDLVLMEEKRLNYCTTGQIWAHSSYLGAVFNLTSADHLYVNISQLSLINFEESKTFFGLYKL

[2] = molecular target: T2, Full length TNF-gamma-beta on the cell surface (human, UniProt O95150 1-251); assay: flow cytometry competition on TNF-gamma-beta expressing cells; competitor DR3-Fc
T2 construct: whole, on cells; also called TNF-gamma-beta expressing cells
T2 sequence (looked up): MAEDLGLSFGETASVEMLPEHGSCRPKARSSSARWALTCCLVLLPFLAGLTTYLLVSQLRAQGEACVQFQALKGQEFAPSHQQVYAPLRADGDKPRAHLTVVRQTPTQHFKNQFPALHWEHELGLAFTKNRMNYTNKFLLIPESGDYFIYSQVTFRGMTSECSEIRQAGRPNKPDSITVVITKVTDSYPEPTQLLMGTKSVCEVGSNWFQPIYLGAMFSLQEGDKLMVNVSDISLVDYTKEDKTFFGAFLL

[3] = molecular target: T2, Full length TNF-gamma-beta on the cell …; assay: flow cytometry on HEK293F cells expressing full length TNF-gamma-beta
[4] = molecular target: T3, AIM-II expressed on HEK 293 EBNA cells (UniProt O43557 1-240); assay: flow cytometry on AIM-II-transfected HEK 293 EBNA cells
T3 construct: whole, on cells
T3 sequence (O43557 whole entry): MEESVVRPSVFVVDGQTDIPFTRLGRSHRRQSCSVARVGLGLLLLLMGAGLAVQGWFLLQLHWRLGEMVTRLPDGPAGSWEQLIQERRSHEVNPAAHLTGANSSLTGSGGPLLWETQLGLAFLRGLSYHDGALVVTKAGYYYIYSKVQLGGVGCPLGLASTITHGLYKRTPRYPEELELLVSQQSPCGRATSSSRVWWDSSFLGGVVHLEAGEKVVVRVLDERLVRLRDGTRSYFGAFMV
Experimental: For detecting Fc-fusion protein, cells were stained with FITC-conjugated goat anti-human IgG. […] The cells were analyzed by FACScan (Becton Dickinson).

[5] = molecular target: T4, Fas receptor on human cells (Jurkat, HT-29) (human, UniProt P25445 26-335); assay: cell-based or functional assay
T4 sequence (looked up): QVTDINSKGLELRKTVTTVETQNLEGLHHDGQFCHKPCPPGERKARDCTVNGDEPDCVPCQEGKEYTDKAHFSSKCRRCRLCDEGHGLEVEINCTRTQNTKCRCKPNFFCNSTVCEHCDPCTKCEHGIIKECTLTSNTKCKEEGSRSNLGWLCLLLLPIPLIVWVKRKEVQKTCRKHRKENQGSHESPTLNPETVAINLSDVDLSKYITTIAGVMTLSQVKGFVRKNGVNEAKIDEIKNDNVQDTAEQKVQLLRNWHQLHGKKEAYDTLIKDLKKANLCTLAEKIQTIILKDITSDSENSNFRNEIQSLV

B1: TNFR6 alpha-Fc (full length TNFR-6 alpha, amino acids 1-300 of SEQ ID NO:2, fused to an Fc domain of human IgG1) (Fc fusion, not shown: a dimerising Fc or GST)
chain: VAETPTYPWRDAETGERLVCAQCPPGTFVQRPCRRDSPTTCGPCPPRHYTQFWNYLERCRYCNVLCGEREEEARACHATHNRACRCRTGFFAHAGFCLEHASCPPGAGVIAPGTPSQNTQCQPCPPGTFSASSSSSEQCQPHRNCTALGLALNVPGSSSHDTLCTSCTGFPLSTRVPGAEECERAVIDFVAFQDISIKRLQRLLQALEAPEGWGPTPRAGRAALQLKLRRRLTELLGAQDGALLVRLLQALRVARMPGLERSVRERFLPVH
potency relative to Fas-Fc, killing of A20 cells by murine FasL transfected L929 cells [1]: 100 fold

B2: TR6 (full-length human TNFR-6 alpha without Fc) (receptor)
chain: B1 chain
notes: Full-length cDNA (aa 1-300) expressed in Sf9 cells; also called TR6-non-Fc; TR6 non-Fc
molar ratio (TR6 to DR3-Fc) at which no DR3-Fc binding was detected [2]: 2 mol/mol

B4: HVEM/TR2-Fc (Fc fusion)
chain: LPSCKEDEYPVGSECCPKCSPGYRVKEACGELTGTVCEPCPPGTYIAHLNGLSKCLQCQMCDPAMGLRASRNCSRTENAVCGCSPGHFCIVQDGDHCAACRAYATSSPGQRVQKGGTESQDTLCQNCPPGTFSPNGTLEECQHQTKCSWLVTKAGAGTSSSHWV
notes: also called soluble form of HVEM/TR2-Fc; not shown: Fc portion
binding result [4]: binds

B6: Soluble human FLAG-FasL (synthesized at HGS) (ligand, UniProt P48023 130-281, looked up, not shown: small tags and cut ends)
chain: QIGHPSPPPEKKELRKVAHLTGKSNSRSMPLEWEDTYGIVLLSGVKYKKGGLVINETGLYFVYSKVYFRGQSCNNLPLSHKVYMRNSKYPQDLVMMEGKMMSYCTTGQMWARSSYLGAVFNLTSADHLYVNVSELSLVNFEESQTFFGLYKL
increase in apoptotic Jurkat cells over untreated controls (annexin FACS) [5]: ~7 fold

More lines, now with the values ahead:

binding result [3]: no binding
B3: OPG-Fc (Fc-fusion form of the extracellular domain) (Fc fusion, UniProt O00300 22-194, looked up)
chain: ETFPPKYLHYDEETSHQLLCDKCPPGTYLKQHCTAKWKTVCAPCPDHYYTDSWHTSDECLYCSPVCKELQYVKQECNRTHNRVCECKEGRYLEIEFCLKHRSCPPGFGVVQAGTPERNTVCKRCPDGFFSNETSSKAPCRKHTNCSVFGLLLTQKGNATHDNICSGNSESTQK
notes: extracellular domain; not shown: Fc portion

binding result [4]: binds
B5: LTβR-Fc (Fc fusion, UniProt P36941 31-227, looked up)
chain: QAVPPYASENQTCRDQEKEYYEPQHRICCSRCPPGTYVSAKCSRIRDTVCATCAENSYNEHWNYLTICQLCRPCDPVMGLEEIAPCTSKRKTQCRCQPGMFCAAWALECTHCELLSDCPPGTEAELKDEVGKGNNHCVPCKAGHFQNTSSPSARCQPHTRCENQGLVEAAPGTAQSDTTCKNPLEPLPPEMSGTMLM
notes: also called LTbetaR-Fc; LTBR-Fc; not shown: Fc portion

binding result [3]: no binding
B7: DcR1-Fc (Fc-fusion form of the extracellular domain) (Fc fusion, UniProt O14798 26-221, looked up)
chain: ATTARQEEVPQQTVAPQQQRHSFKGEECPAGSHRSEHTGACNPCTEGVDYTNASNNEPSCFPCTVCKSDQKHKSSCTMTRDTVCQCKEGTFRNENSPEMCRKCSRCPSGEVQVSNCTSWDDIQCVEEFGANATVETPAAEETMNTSPGTPAPAAEETMNTSPGTPAPAAEETMTTSPGTPAPAAEETMTTSPGTPA
notes: as for B3
